From patent US12103951B2, “Use of CGRP receptor antagonists in neuroprotection and neurological disorders” (priority 2016, dated 2024)
Entries after “also recorded” stand apart in the source; their conditions may differ.

Tests used:
[1] = tested on: optic nerve axons; assay: Rat laser glaucoma model: total number of optic nerve axons (stereology); type: in vivo, Wistar rats; details: IP daily for two weeks; for total number of optic nerve axons, lasered vs contralateral control eyes: paired sample t-test, P>0.05
Method: In this study, Wistar rats (n=12) were used for the experiments. The neuroprotective properties of compounds were investigated in a rat laser model of glaucoma. Rats were divided into two groups of six rats each. One group served as a placebo control receiving vehicle (NaCl) injections, and the other was treated with a peptide CGRP receptor antagonist (SEQ ID NO: 1). For all 12 rats, the contralateral, untreated eye served as a naïve undiseased control. The vehicle control and test compound (20 mg/kg) were administered systemically (IP) daily for the whole follow-up period of two weeks. The animals were sacrificed using transcardial perfusion. The retinal whole-mounts were then immuno-stained against retinal ganglion cell (RGC) marker Brn3a and astrocytic marker GFAP (glial fibrillary acidic protein). The number of Brn3a positive profiles was manually counted from retinal images taken from central and peripheral parts of retina. The total number of GFAP-immunoreactive cells (retinal astrocytes) was estimated using stereology. The total number of RGC axons in the optic nerve was estimated using stereology.
The rat glaucoma model was induced unilaterally by laser photocoagulation of episcleral veins as previously described (Kalesnykas et al., 2007). Anesthesia was performed using sodium pentobarbital (30 mg/kg). […]
2. Quantification of optic nerve axons using stereology. […]
After the optic nerves were post-fixed in 4% PFA (in 0.1M phosphate buffer, pH 7.4) solution, they were placed in 1% osmium, dehydrated in ascending alcohol concentration and placed in 1% uranyl acetate in 100% ethanol for 1 hour (Cone et al., 2012). […] Briefly, axons were counted manually using the Stereo Investigator software (MicroBrightField, VT, USA). […]
Quantitative data was graphed, analyzed and presented as mean±standard deviation (SD) or standard error of mean (SEM). Parametric data was analyzed using paired-samples T-test (the contralateral eye of the same animal serves as control). Non-parametric data was analyzed using Mann-Whitney U test (comparison of 2 groups) or Wilcoxon paired-samples T-test. […]

[2] = Rat laser glaucoma model: weight of animals; type: in vivo, Wistar rats
[3] = 14-day subcutaneous rat study: mortality, clinical signs, body weight, feed consumption; type: in vivo, Sprague Dawley rats; details: s.c. daily 14 days
Method: Sprague Dawley rats were administered the CGRP antagonist daily via the subcutaneous route for a period of 14 days, resulting in the surprising effect of LDL lowering. Fifty six animals (36 males and 20 females) were distributed into four groups (consisting each of 5 males and 5 females per group and 4 extra males each for testing group as backups). The groups were as follows: G1—Control, G2—Low dose—100 mcg/kg, G3—Intermediate dose—300 mcg/kg, G4—High dose—1000 mcg/kg.
Rats from the treatment groups were dosed subcutaneously with CGRP receptor antagonists (SEQ ID NO: 1) reconstituted with normal saline at different dose levels per treatment group for 14 days. Control animals were dosed with the vehicle alone.
The acclimatization period was, at a minimum, 7 days. For the randomization, animals were selected and grouped based on stratified randomization by using body weights one day before dosing (day 0) using an Excel program. The route of administration of the antagonist was by a subcutaneous method. The frequency of the administration was daily for fourteen days. The dose volume was set at 5 ml/kg of body weight. The duration of the treatment was fourteen days with administration occurring approximately at the same time each day.
The following observations were recorded: • 1. […] Body Weight • Body weight was recorded on day 1, 7, 11 and 15. • 3. Feed Consumption • Feed consumption was recorded daily and reported weekly. • 4. Blood Collection and Laboratory Investigations • Blood samples for were collected from all animals on day 15. The animals were fasted overnight before blood sampling but allowed access to water ad libitum for hematology and biochemistry. Blood samples were drawn from the retro-orbital plexus using a micro-hematocrit heparinized glass capillary tube. Blood samples were centrifuged (3500 rpm) and after centrifugation plasma was separated for further analysis.

Substance: NH2-Ala-Cys-Asp-Thr-Ala-Ala-Cys-Val-Leu-Gly-Arg-Leu-Ser-Gln-Glu-Leu-His-Arg-Leu-Gln-Thr-Tyr-Pro-Arg-Thr-Asn-Val-Gly-Ser-Lys-Ala-Phe-NH2 (H-ACDTAACVLGRLSQELHRLQTYPRTNVGSKAF-NH2; ends and bridges not checked) [SEQ ID NO: 1, peptide CGRP receptor antagonist]
- total number of optic nerve axons, increase vs optic nerves from contralateral control eyes ([1]; increase): 1.7%
- total number of optic nerve axons, lasered vs contralateral control eyes [1]: did not differ significantly; also recorded: smallest decrease in the total number of axons
- total number of optic nerve axons, lasered vs contralateral control eyes ([1]; listed as CGRP antagonist): slight increase
- difference in the weight between the groups ([2]; Mann-Whitney U test, P>0.05): no significant difference
- Baseline weight ([2]; mean ± SD, baseline): 538 ± 21 g
- Weight prior to sacrifice ([2]; mean ± SD, end of two-week study): 524 ± 27 g
- food consumption ([3]; all study groups): normal
- body weight among the groups [3]: no statistically significant difference
- mortality or morbidity ([3]; 100, 300, 1000 mcg/kg): no mortality or morbidity
- clinical signs ([3]; high dose = 1000 mcg/kg, all animals normalized from day 12): no clinical signs were observed during the entire study period except for four males from the high dose group that showed lethargy on day 10
